Results on three molecules are retold here after US20050214830A1, “G protein-binding proteins and polynucleotides encoding the same” (Wyeth, priority 1998, published 2005).

The target of one assay is T1, rat Gαo (Rattus norvegicus, UniProt P59215).
T1 construct: fusion proteins containing C-terminal regions of Gα proteins in Y2H assays; expressed in transfected cells; host or cells: yeast strain CY770, plasmid pACT2
The experiment in a line: Yeast 2-hybrid (Y2H) bioassay for BBP interaction with Gαo. Particulars: BBP intracellular loop as Gal4 DNA-binding domain fusion; C-terminal region of Gα as Gal4 activation domain fusion; compared to vector. The text has this:
(§1) Yeast 2-hybrid assays. Y2H expression plasmids were constructed in the vectors pAS2 and pACT2 (Wade Harper et al., 1993). Strain CY770 (Ozenberger and Young, 1995) served as the host for Y2H assays. Sequences encoding the BBPI intracellular loop were amplified using the oligonucleotides 5′-CCTTCC ATGGAAGTGGCAGTCGCATTGTCT [SEQ ID NO:24] plus 5′-AACACTCGAG TCAAAACCCTACAGTGCAAAAC [SEQ ID NO:25]. This product, containing BBP1 codons 185 to 217, was digested with NcoI+XhoI and cloned into pAS2 cleaved with NcoI+SaII to generate pOZ339. Sequences encoding the BBP2 intracellular loop were amplified using the oligonucleotides 5′-CCATG GCCACTTTACTCTACTCCTTCTT [SEQ ID NO:26] plus 5′-CTCGAG TCA AAT CCC MG TCC TCC MG CG [SEQ ID NO:27]. […]
(§2) The various combinations of plasmids were transformed into strain CY770 by standard protocols. […] Cells were concentrated by centrifugation, counted and 10-fold serial dilutions made from 10^4 to 10^8 cells per ml in sterile water. […]
(§3) BBP1 contains a structural motif known to be a Gα protein activating sequence in the related G protein-coupled receptors. The intracellular sequences of each BBP were expressed as fusion proteins and assayed. for physical interactions with fusion proteins containing C-terminal regions of Gα proteins in Y2H assays.

The subject of assay [1] is Human Ntera2 (Nt2) stem cells. The experiment in a line: Staurosporine-induced nuclear condensation (apoptosis) in transfected Nt2 stem cells. It counts as cell-based. The text has this:
Mammalian expression plasmids. BBP cDNAs were modified by polymerase chain reaction (PCR) for expression from the vector pcDNA3.1 (Invitrogen Corp., Carlsbad, Calif.). BBP1 cDNA was amplified from pBBP1-fl (ATCC #98617); from the third potential translation start site to the translation stop codon, adding a 5′ EcoRI and a 3′ SaII site for cloning. The BBP1 cDNA contains three potential translation starts (codons 1, 30, and 63). The third start site was chosen for the described experiments because the first two potential initiating codons lack appropriate sequence context for efficient translation initiation (see Kozak, 1996), and based on similarities of the protein derived from the third start site with a putative BBP1 orthologue from Drosophila melanogaster (Genbank accession M941984). FIG. 1 depicts this minimal BBP1 translation product to optimize the alignment with the other BBP subtypes. The PCR primers were 5′-TGGTGAATTC GAAAGTGTCG GTCTCAACG ATG G [SEQ ID NO:36] (+strand) and 5′-CTTCGTCGAC TTATGGATATAATTGCGTTTTTC [SEQ ID NO:37] (−strand). The PCR product was digested with EcoRI+SaII and cloned into pcDNA3.1/EcoRI−XhoI to create pOZ363. BBP2 and BBP3 expression plasmids were similarily engineered. BBP2 was amplified from pOZ359 (ATCC #98851; using primers 5′-TTCCGAATTC AAGATGGTGCTAGGTGGTTGCCC [SEQ ID NO:38] (+strand) plus 5′-TTCCCTCGAG TTAGTAAACAGTGCACCAGTTGC [SEQ ID NO:39] (−strand). The PCR product was digested with EcoRI+XhoI and cloned into pcDNA3.1/EcoRI−XhoI to create pFL1 1. BBP3 was amplified from pOZ350 (ATCC #98712 using primers 5′-TTTTGAATTC GCAAG ATG GCG GGA GGG GTG CGC [SEQ ID NO:40] (+strand) plus 5′-TTGGCTCGAG CTAAATGTACAAAGAGCCATCTG [SEQ ID NO:41] (−strand). The PCR product was digested with EcoRI+XhoI and cloned into pcDNA3.1/EcoRI−XhoI to create pFL12. Mutation of the arginine codon within the ‘DRF’ motif of each BBP cDNA was performed using the QuickChange system (Stratagene Co., La Jolla, Calif.). Oligonucleotides were synthesized and purified by Genosys Biotechnologies, Inc. (The Woodlands, Tex.). The R138 codon of BBP1 in pOZ363 was changed to an alanine codon using the oligonucleotide 5′-GG TTGGGAGCAGATGCATTTTACCTTGGATACCC [SEQ ID NO: 42] and its exact reverse complement. The changed nucleotides are underlined. The R138 position of BBP1 in pOZ363 was changed to E using the oligonucleotide 5′-GG TTGGGAGCAGATGAATTTTACCTTGGATACCC [SEQ ID NO:43] and its exact reverse complement. The R167 position of BBP2 in pFL11 was changed to E using the oligonucleotide 5′-CTGGGATGTTTTGGTGTGGAT GM TTC TGT TTG GGA CAC AC [SEQ ID NO:44] and its exact reverse complement. […]

The next assay has as its target T2, rat Gαi2 (Rattus norvegicus, UniProt P04897).
T2 construct: fusion proteins containing C-terminal regions of Gα proteins in Y2H assays; expressed in transfected cells; host or cells: yeast strain CY770, plasmid pACT2
The assay is described as follows: Yeast 2-hybrid (Y2H) bioassay for BBP interaction with Gαi2. Particulars: BBP intracellular loop as Gal4 DNA-binding domain fusion; C-terminal region of Gα as Gal4 activation domain fusion; compared to vector.
Text: as §1, §2, §3

In a further assay the target is T3, rat Gαs (Rattus norvegicus, UniProt P63095).
T3 construct: fusion proteins containing C-terminal regions of Gα proteins in Y2H assays; expressed in transfected cells; host or cells: yeast strain CY770, plasmid pACT2
The experiment in a line: Yeast 2-hybrid (Y2H) bioassay for BBP interaction with Gαs. Particulars: BBP intracellular loop as Gal4 DNA-binding domain fusion; C-terminal region of Gα as Gal4 activation domain fusion; compared to vector.
Text: as §1, §2, §3

Where [2] appears, read: recombinant expression in Nt2 stem cells, 100 nM staurosporine for 3 hrs.

T2 sequence (P04897 213-355 limits assumed): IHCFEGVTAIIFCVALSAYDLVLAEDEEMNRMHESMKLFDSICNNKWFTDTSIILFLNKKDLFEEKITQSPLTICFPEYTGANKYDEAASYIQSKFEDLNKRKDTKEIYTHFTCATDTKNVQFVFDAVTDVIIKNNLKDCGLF
T3 sequence (P63095 235-394 limits assumed): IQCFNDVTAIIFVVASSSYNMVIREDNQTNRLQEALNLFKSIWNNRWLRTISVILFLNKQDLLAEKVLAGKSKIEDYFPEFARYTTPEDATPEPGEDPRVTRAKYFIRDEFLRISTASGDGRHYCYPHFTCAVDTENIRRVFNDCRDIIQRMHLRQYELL
T1 sequence (P59215 213-354 limits assumed): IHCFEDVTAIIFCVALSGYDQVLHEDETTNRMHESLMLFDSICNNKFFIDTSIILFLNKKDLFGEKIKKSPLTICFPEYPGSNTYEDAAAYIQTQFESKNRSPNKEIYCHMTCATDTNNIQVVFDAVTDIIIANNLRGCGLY

B1: BBP1: novel BAP binding protein, SEQ ID NO:2; two-transmembrane protein with 'DRF' motif; expressed from pOZ363 (protein, listed as Homo sapiens)
chain: MHILKGSPNVIPRAHGQKNTRRDGTGLYPMRGPFKNLALLPFSLPLLGGGGSGSGEKVSVSKMAAAWPSGPSAPEAVTARLVGVLWFVSVTTGPWGAVATSAGGEESLKCEDLKVGQYICKDPKINDATQEPVNCTNYTAHVSCFPAPNITCKDSSGNETHFTGNEVGFFKPISCRNVNGYSYKVAVALSLFLGWLGADRFYLGYPALGLLKFCTVGFCGIGSLIDFILISMQIVGPSDGSSYIIDYYGTRLTRLSITNETFRKTQLYP
Regarding B1, the “physical interaction with Gαo (Y2H growth response)” value with rat Gαo is listed as “interacted with all three Gα proteins”. The “cell death induced by staurosporine” value in assay [1] (Nt2 transfectants, 24 hr treatment with staurosporine (data not shown)) is “blocked cell death”. Moreover, the “apoptosis (percentage of condensed nuclei among EGFP+ transfectants)” value in assay [1] (recombinant expression in Nt2 stem cells, 100 nM staurosporine for 3 hrs, controls 45%) is reported as 13.5%. In addition, in the assay with rat Gαi2, the “physical interaction with Gαi (Y2H growth response)” value was “interacted with all three Gα proteins”. The “physical interaction with Gαs (Y2H growth response)” value with rat Gαs is on record as “interacted with all three Gα proteins”.

B2: 5HT-R: 7-tm domain G protein-coupled serotonin receptor expressed as control in the apoptosis assay (protein, UniProt P08908 1-422, looked up)
5-hydroxytryptamine receptor …: MDVLSPGQGNNTTSPPAPFETGGNTTGISDVTVSYQVITSLLLGTLIFCAVLGNACVVAAIALERSLQNVANYLIGSLAVTDLMVSVLVLPMAALYQVLNKWTLGQVTCDLFIALDVLCCTSSILHLCAIALDRYWAITDPIDYVNKRTPRRAAALISLTWLIGFLISIPPMLGWRTPEDRSDPDACTISKDHGYTIYSTFGAFYIPLLLMLVLYGRIFRAARFRIRKTVKKVEKTGADTRHGASPAPQPKKSVNGESGSRNWRLGVESKAGGALCANGAVRQGDDGAALEVIEVHRVGNSKEHLPLPSEAGPTPCAPASFERKNERNAEAKRKMALARERKTVKTLGIIMGTFILCWLPFFIVALVLPFCESSCHMPTLLGAIINWLGYSNSLLNPVIYAYFNKDFQNAFKKIIKCKFCRQ
Take B2: the “suppression of staurosporine-induced nuclear condensation (antiapoptotic activity), in words” value in assay [1] (setting [2]) is reported as “had no effect”.

B3: BBP3: 221 amino acid BBP family protein (short form), SEQ ID NO:6; expressed from pFL12 (protein, listed as Homo sapiens)
chain: MAGGVRPLRGLRALCRVLLFLSQFCILSGGESTEIPPYVMKCPSNGLCSRLPADCIDCTTNFSCTYGKPVTFDCAVKPSVTCVDQDFKSQKNFIINMTCRFCWQLPETDYECTNSTSCMTVSCPRQRYPANCTVRDHVHCLGNRTFPKMLYCNWTGGYKWSTALALSITLGGFGADRFYLGQWREGLGKLFSFGGLGIWTLIDVLLIGVGYVGPADGSLYI
For B3, the “physical interaction with Gαo (Y2H growth response)” value with rat Gαo is “none”. The “suppression of staurosporine-induced nuclear condensation (antiapoptotic activity), in words” value in assay [1] (setting [2]) is “suppressed the induction of nuclear condensation to the same levels as BBP1”. The “physical interaction with Gαi (Y2H growth response)” value in the assay with rat Gαi2 is on record as “exhibited interaction”. Also, the “physical interaction with Gαs (Y2H growth response)” value in the assay with rat Gαs is given as “strong response”.
